Data from patent US9540424B2, “Serum albumin binding molecules” (BRISTOL-MYERS SQUIBB COMPANY, priority 2010, dated 2017).
Each block holds one molecule with its values, some of them ahead of it.

Columns and labels:
HSA = HSA (Homo sapiens, UniProt P02768); conditions: for Resistant to pH 7.4→5.5?: binding to HSA from pH 7.4 down to pH 5.5, symbols not defined
Description: (§1) In addition, binding to albumin was carried out under various pH conditions ranging from pH 5.5 to pH 7.4.

RhSA = RhSA (Macaca mulatta, UniProt Q28522); experiment: Biacore kinetics of SABAs on immobilized serum albumin: RhSA; type: binding, rhesus; conditions: for Kd: target RhSA
Description: as §1

[1] = Half-life of HSA and of SABA1-4 with or without HSA in mice (ELISA, WinNonlin); type: in vivo, Ncr nude female mice; conditions: for PK (T½) Mice: co-injected with HSA (3-4 molar excess), tail vein; for half-life in mice plasma: injected without HSA; for increase in half life when co-injected with HSA: with HSA vs without HSA, mice
Description: The pharmacokinetic parameters of each Adnectin™ were determined using non-compartmental modeling with WinNonlin software.

MuSA = MuSA (Mus musculus, UniProt P07724); experiment: Biacore kinetics of SABAs on immobilized serum albumin: MuSA; type: binding
Human serum albumin = target: T1, Human serum albumin (Homo sapiens, UniProt P02768); experiment: SPR (ProteOn XPR36) binding of SABA-neuropeptide fusions to Human Serum Albumin; conditions: 25° C., average of two experiments
T1 construct: purchased Novozymes Recombumin
Description: Surface Plasmon Resonance (SPR) is a direct binding technique by which molecular interactions can be observed in real time. For these experiments, SPR binding studies were performed using a ProteOn XPR36 instrument (BioRad Laboratories). The running buffer, phosphate buffered saline 0.05% Tween 20 pH 7.4, was purchased from Teknova (cat #P1192) and all experiments were run at 25° C. Human serum albumin was directly immobilized on a BioRad GLC chip via amine coupling as per manufacturer's guidelines using amine coupling reagents purchased from BioRad Laboratories. Human serum albumin was purchased from Novozymes (Recombumin™). About 5000 resonance units (RU) of human serum albumin were immobilized onto 4 separate lanes of the GLC chip surface. For each analyte, five concentrations ranging from 15.6 nM to 250 nM were injected over the surface at 30 μl/min for 240 seconds. The dissociation was monitored for 600 seconds. The surface was regenerated with 100 mM HCl. The resultant data were fitted to a Langumuir 1:1 binding model using the ProteOn Manager Software. The experiment was repeated with a different concentration range. In this second experiment, 5 concentrations ranging from 500 nM to 32 nM were injected over the surfaces, and the data analyzed as above. The KD is the disassociation constant. Smaller numbers indicate tighter binding to serum albumin. Molecules covalently attached to SABA that bind to serum albumin display longer in vivo pharmokinetic half-lives, as described earlier with respect to SABA-FGF-21 fusions.

[2] = Analytical size exclusion chromatography (SEC) of SABAs; type: physicochemical; conditions: midscaled material
Description: Size exclusion chromatography (SEC) was performed on the SABAs resulting from the HTPP. SEC of HTPP derived material was performed using a Superdex 200 5/150 or Superdex 75 5/150 column (GE Healthcare) on an Agilent 1100 or 1200 HPLC system with UV detection at A214 nm and A280 nm and with fluorescence detection (excitation=280 nm, emission=350 nm). A buffer of 100 mM sodium sulfate, 100 mM sodium phosphate, 150 mM sodium chloride, pH 6.8 at appropriate flow rate of the SEC column employed. Gel filtration standards (Bio-Rad Laboratories, Hercules, Calif.) were used for molecular weight calibration.
Midscale expression and purification yielded highly pure and active Adnectins™ that were expressed in a soluble form and purified from the soluble fraction of the bacterial cytosol.
Standard size exclusion chromatography (SEC) was performed on the candidate SABAs resulting from the midscale process. SEC of midscaled material was performed using a Superdex 200 10/30 or on a Superdex 75 10/30 column (GE Healthcare) on an Agilent 1100 or 1200 HPLC system with UV detection at A214 nm and A280 nm and with fluorescence detection (excitation=280 nm, emission=350 nm). A buffer of 100 mM sodium sulfate, 100 mM sodium phosphate, 150 mM sodium chloride, pH 6.8 at appropriate flow rate of the SEC column employed. Gel filtration standards (Bio-Rad Laboratories, Hercules, Calif.) were used for molecular weight calibration.

[3] = Pharmacokinetics of His-tagged FGF21 and SABA-FGF21 fusions in monkeys; type: in vivo, cynomolgus monkeys; conditions: monkeys
Description: Various in vivo studies were conducted in mice and monkeys to characterize the pharmacokinetics of His-tagged FGF21 and SABA1-FGF21v1. An ELISA-based ligand binding assay was used to measure the His-tagged FGF21 and SABA1-FGF21v1 in all mouse and monkey plasma samples.
Following subcutaneous administration, His-tagged FGF21 was well absorbed.
Following subcutaneous administration, SABA1-FGF21v1 was well absorbed.

[4] = intravenous, His-tagged FGF21 0.5 mg/kg, SABA1-FGF21v1 0.08 mg/kg

RhSA, sequence (Q28522 17-600): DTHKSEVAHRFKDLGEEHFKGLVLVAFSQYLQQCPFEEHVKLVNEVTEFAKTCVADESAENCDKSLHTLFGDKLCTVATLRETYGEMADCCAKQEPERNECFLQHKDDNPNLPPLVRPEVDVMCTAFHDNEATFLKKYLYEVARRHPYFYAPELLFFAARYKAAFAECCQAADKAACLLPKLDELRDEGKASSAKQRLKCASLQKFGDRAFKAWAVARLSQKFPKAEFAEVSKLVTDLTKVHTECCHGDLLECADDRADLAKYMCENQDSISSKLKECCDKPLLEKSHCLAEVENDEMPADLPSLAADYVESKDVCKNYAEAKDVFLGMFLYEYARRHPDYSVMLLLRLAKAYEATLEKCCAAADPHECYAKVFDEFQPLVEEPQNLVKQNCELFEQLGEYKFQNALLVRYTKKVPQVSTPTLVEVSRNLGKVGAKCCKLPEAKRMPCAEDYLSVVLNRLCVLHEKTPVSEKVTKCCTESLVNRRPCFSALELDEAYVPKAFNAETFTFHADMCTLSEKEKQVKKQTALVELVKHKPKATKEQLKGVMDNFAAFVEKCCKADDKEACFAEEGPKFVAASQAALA
MuSA, sequence (P07724 25-608): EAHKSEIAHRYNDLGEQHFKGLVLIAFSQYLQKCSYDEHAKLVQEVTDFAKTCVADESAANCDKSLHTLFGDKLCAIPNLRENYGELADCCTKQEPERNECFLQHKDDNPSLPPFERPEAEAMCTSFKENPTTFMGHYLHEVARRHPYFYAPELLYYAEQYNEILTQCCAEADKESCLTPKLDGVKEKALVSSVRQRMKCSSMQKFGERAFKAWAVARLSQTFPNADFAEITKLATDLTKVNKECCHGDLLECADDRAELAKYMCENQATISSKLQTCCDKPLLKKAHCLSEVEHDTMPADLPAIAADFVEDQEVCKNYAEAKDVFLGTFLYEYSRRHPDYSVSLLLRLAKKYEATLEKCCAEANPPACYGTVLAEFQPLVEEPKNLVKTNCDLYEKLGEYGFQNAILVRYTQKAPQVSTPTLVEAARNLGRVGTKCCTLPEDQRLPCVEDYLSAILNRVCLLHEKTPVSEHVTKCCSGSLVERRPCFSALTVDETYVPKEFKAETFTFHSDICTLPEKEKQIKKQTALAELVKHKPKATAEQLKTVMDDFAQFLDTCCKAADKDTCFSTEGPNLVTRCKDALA

B4: SABA1-APPv7: SEQ ID NO: 364; SABA1.7-(ED)5G-Cys conjugated to Maleimide-PEG20-PP-CONH2 (conjugate)
chain: MGVSDVPRDLEVVAATPTSLLISWHSYYEQNSYYRITYGETGGNSPVQEFTVPYSQTTATISGLKPGVDYTITVYAVYGSKYYYPISINYRTEIEDEDEDEDEDGC
modifications: Maleimide-PEG20-PP-CONH2 conjugated via Cys
Koff (1/s) (Human serum albumin): 1.42 10^−4 1/s | Kon (1/Ms) (Human serum albumin): 7.88 10^3 1/Ms

B5: SABA1-PYYv7: SEQ ID NO: 344; SABA1.7-(ED)5G-Cys conjugated to Maleimide-PEG20-PYY-CONH2 (conjugate)
chain: MGVSDVPRDLEVVAATPTSLLISWHSYYEQNSYYRITYGETGGNSPVQEFTVPYSQTTATISGLKPGVDYTITVYAVYGSKYYYPISINYRTEIEDEDEDEDEDGC
modifications: Maleimide-PEG20-PYY-CONH2 conjugated via Cys
Koff (1/s) (Human serum albumin): 2.08 10^−4 1/s | Kon (1/Ms) (Human serum albumin): 9.29 10^3 1/Ms

B7: SABA2: SABA core sequence from PROfusion; in Table 5 stands for SABA2.1 (protein)
chain: EVVAATPTSLLISWPKYDKTGHYYRITYGETGGNSPVQEFTVPTRQTTATISGLKPGVDYTITVYAVSKDDYYPHEHRPISINYRT
Kd (HSA): 33.8 nM | Resistant to pH 7.4→5.5? (HSA): pH sensitive | Kd (RhSA): 63.6 nM

B9: FGF21-SABA1v1: fusion in which the SABA moiety is at the C-terminus of FGF21, SEQ ID NO: 171; 300 aa; DNA SEQ ID NO: 180 (protein)
chain: MPIPDSSPLLQFGGQVRQRYLYTDDAQQTEAHLEIREDGTVGGAADQSPESLLQLKALKPGVIQILGVKTSRFLCQRPDGALYGSLHFDPEACSFRELLLEDGYNVYQSEAHGLPLHLPGNKSPHRDPAPRGPARFLPLPGLPPALPEPPGILAPQPPDVGSSDPLSMVGPSQGRSPSYASGGSGSGSGSGSGSGSGVSDVPRDLEVVAATPTSLLISWHSYYEQNSYYRITYGETGGNSPVQEFTVPYSQTTATISGLKPGVDYTITVYAVYGSKYYYPISINYRTEIDKPSQHHHHHH
increase of t1/2 compared to His-tagged FGF21 [3]: ~27 fold | CL (total body plasma clearance, CLTp) [3, 4]: 1.2 mL/h/kg | T½ (terminal half-life) [3, 4]: 50.3 h | Vdss (steady-state volume of distribution, Vss) [3, 4]: 0.06 L/kg

More lines, main results first:

Kd (RhSA): 778 nM
B1: SABA1: serum albumin binding 10Fn3 core sequence, SEQ ID NO: 4; in Table 5 stands for SABA1.1 (protein)
chain: EVVAATPTSLLISWHSYYEQNSYYRITYGETGGNSPVQEFTVPYSQTTATISGLKPGVDYTITVYAVYGSKYYYPISINYRT
Kd (HSA): 47.2 nM

Comments: decrease in KD observed at pH <6.0 (HSA; pH <6.0): >2-fold decrease in KD observed at | cross reaction with MuSA (MuSA): did not cross react | Comments: binding affinity for RhSA (RhSA): Poor binding affinity for RhSA. | cross reaction with RhSA (RhSA): cross reacted
B2: SABA4.1: HSA binding clone of SABA4 (protein)
chain: MGVSDVPRDLEMVAATPTSLLISWEDDSYYSRYYRITYGETGGNSPVQEFTVPSDLYTATISGLKPGVDYTITVYAVTYDVTDLIMHEPISINYRTEIDKPSQHHHHHH
modifications: His6 tag
PK (T½) Mice [1]: 4.6 h | half-life in mice plasma [1]: 0.66 h | increase in half life when co-injected with HSA [1]: ~7 fold

Resistant to pH 7.4→5.5? (HSA): pH sensitive | Kd (RhSA): > 1000 nM
B3: SABA4: SABA core with a scaffold mutation; same BC, DE, FG loops as SABA5; in Table 5 stands for SABA4.1 (protein)
chain: EMVAATPTSLLISWEDDSYYSRYYRITYGETGGNSPVQEFTVPSDLYTATISGLKPGVDYTITVYAVTYDVTDLIMHEPISINYRT
Kd (HSA): 412 nM | PK (T½) Mice [1]: 4.6 h

Kd (RhSA): 431 nM
B6: SABA3: SABA core sequence from PROfusion; in Table 5 stands for SABA3.1 (protein)
chain: EVVAATPTSLLISWSNDGPGLSYYRITYGETGGNSPVQEFTVPSSQTTATISGLKPGVDYTITVYAVSYYTKKAYSAGPISINYRT
Kd (HSA): 863 nM | Resistant to pH 7.4→5.5? (HSA): pH resistant binding to HSA down to pH 6.0

Comments: binding in dependence of pH (HSA): Loss of binding at pH ≦6.5 | cross reaction with MuSA (MuSA): did not cross react | cross reaction with RhSA (RhSA): cross reacted
B8: SABA2.1: His-tagged SABA2 sequence (protein)
chain: MGVSDVPRDLEVVAATPTSLLISWPKYDKTGHYYRITYGETGGNSPVQEFTVPTRQTTATISGLKPGVDYTITVYAVSKDDYYPHEHRPISINYRTEIDKPSQHHHHHH
modifications: His6 tag
SEC Dimer (%) [2]: 9% | SEC Monomer (%) [2]: 91% | PK (T½) Mice [1]: 2.8 h | half-life in mice plasma [1]: 0.24 h | increase in half life when co-injected with HSA [1]: ~12 fold
